For ten sequences, protein stability index results are on record in the supplement of paper PMC10724198.

Series [1] concerns Saccharomyces cerevisiae. As to the kind of experiment: protein stability index of tFT-peptide fusion (C-terminal peptide) (PSI (0-1 scale)); higher = more stable (slower turnover). As to conditions: genetic background: wild type; temperature: 30 C.
The test system of series [2] is Saccharomyces cerevisiae. The description is as above. On the procedure:
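MPS profiling in S. cerevisiae of the tFT-X12 degron library: putative degron peptides plus stable controls, 12 aa, fused to the C-terminus of a sfGFP-mCherry timer. Cells are FACS-sorted into 8 mCherry/sfGFP bins and deep-sequenced. PSI runs from 0 (unstable) to 1 (stable). Backgrounds are wild type, das1Δ and doa10Δ at 30 °C, and wild type, das1Δ, cdc34-1 and cdc53-1 at 37 °C; 2-3 technical replicates each.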

Setting [3] is: genetic background: cdc34-1, temperature: 37 C.
The mark [4] stands for this setting: genetic background: cdc53-1, temperature: 37 C.
Setting [5] is: genetic background: das1 deletion, temperature: 30 C.
The mark [6] stands for this setting: genetic background: das1 deletion, temperature: 37 C.
[7] abbreviates: genetic background: doa10 deletion, temperature: 30 C.
The mark [8] stands for this setting: genetic background: wild type, temperature: 30 C.
Setting [9] is: genetic background: wild type, temperature: 37 C.

± gives the standard deviation of the averaged measurements.
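Also: PSI is a weighted mean of sequencing reads over stability bins, variants kept only with over 10 reads, mCherry proximal and sfGFP distal, peptide attached via GGGS linker.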

As to FLAWSVGILCRV, the protein stability index in the series on Saccharomyces cerevisiae [1] was found to be 0.317 ± 0.018; in the series on Saccharomyces cerevisiae [2] (setting [3]) it was 0.228 ± 0.023; with Saccharomyces cerevisiae [2] (setting [4]) it was 0.225 ± 0.022; with Saccharomyces cerevisiae [2] (setting [5]), 0.238 ± 0.036; in the series on Saccharomyces cerevisiae [2] (setting [6]), 0.351 ± 0.011; with Saccharomyces cerevisiae [2] (setting [7]), 0.213 ± 0.0026. Moreover, the results for the protein stability index in the series on Saccharomyces cerevisiae [2] (setting [8]) and in the series with Saccharomyces cerevisiae [2] (setting [9]) were 0.224 ± 0.041 and 0.318 ± 0.023, respectively.
As to FLCLFFLAVIKL, the protein stability index in the series with Saccharomyces cerevisiae [1] worked out at 0.383 ± 0.028; in the series on Saccharomyces cerevisiae [2] (setting [3]) it was 0.241 ± 0.018; in the series with Saccharomyces cerevisiae [2] (setting [4]) it was 0.188 ± 0.012; in the series on Saccharomyces cerevisiae [2] (setting [5]) it was 0.344 ± 0.034; with Saccharomyces cerevisiae [2] (setting [6]), 0.412 ± 0.031; in the series on Saccharomyces cerevisiae [2] (setting [7]) it was 0.502 ± 0.007. The protein stability index in the series on Saccharomyces cerevisiae [2] (setting [8]) was 0.309 ± 0.037; in the series with Saccharomyces cerevisiae [2] (setting [9]), 0.356 ± 0.013.
Turning to FLFLLLFLLLCC, the protein stability index in the series with Saccharomyces cerevisiae [1] turned out to be 0.407 ± 0.0033; in the series on Saccharomyces cerevisiae [2] (setting [3]), 0.467 ± 0.0069; in the series with Saccharomyces cerevisiae [2] (setting [4]) it was 0.488 ± 0.0017; with Saccharomyces cerevisiae [2] (setting [5]), 0.377 ± 0.03; with Saccharomyces cerevisiae [2] (setting [6]), 0.534 ± 0.049; in the series on Saccharomyces cerevisiae [2] (setting [7]), 0.349 ± 0.011. For the same sequence, the protein stability index worked out at 0.318 ± 0.033 in the series on Saccharomyces cerevisiae [2] (setting [8]) and 0.4634 ± 0.00047 in the series on Saccharomyces cerevisiae [2] (setting [9]).
Consider FLFPFLSVLFLL, for which the protein stability index with Saccharomyces cerevisiae [1] worked out at 0.245 ± 0.034; in the series with Saccharomyces cerevisiae [2] (setting [3]), 0.477 ± 0.014; in the series on Saccharomyces cerevisiae [2] (setting [4]), 0.506 ± 0.0071; with Saccharomyces cerevisiae [2] (setting [5]) it was 0.479 ± 0.03; in the series with Saccharomyces cerevisiae [2] (setting [6]), 0.5591 ± 0.0049; in the series with Saccharomyces cerevisiae [2] (setting [7]), 0.176 ± 0.0088. Besides, the protein stability index amounted to 0.176 ± 0.0083 in the series on Saccharomyces cerevisiae [2] (setting [8]) and 0.232 ± 0.014 with Saccharomyces cerevisiae [2] (setting [9]).
FLFSVVFFFFSL: the protein stability index in the series on Saccharomyces cerevisiae [1] is 0.421 ± 0.066; in the series with Saccharomyces cerevisiae [2] (setting [3]) it was 0.368 ± 0.028; in the series on Saccharomyces cerevisiae [2] (setting [4]), 0.4558 ± 0.0032; in the series on Saccharomyces cerevisiae [2] (setting [5]), 0.353 ± 0.021; in the series on Saccharomyces cerevisiae [2] (setting [6]), 0.5154 ± 0.003; in the series on Saccharomyces cerevisiae [2] (setting [7]) it was 0.322 ± 0.011. Besides, the protein stability index is 0.35 ± 0.025 in the series with Saccharomyces cerevisiae [2] (setting [8]) and 0.4586 ± 0.0045 in the series on Saccharomyces cerevisiae [2] (setting [9]).
Regarding FLLEVFVLGRTL, the protein stability index in the series on Saccharomyces cerevisiae [1] stood at 0.4742 ± 0.0019; in the series on Saccharomyces cerevisiae [2] (setting [3]), 0.627 ± 0.0076; with Saccharomyces cerevisiae [2] (setting [4]), 0.653 ± 0.023; with Saccharomyces cerevisiae [2] (setting [5]) it was 0.43 ± 0.018; in the series with Saccharomyces cerevisiae [2] (setting [6]), 0.597 ± 0.0081; in the series with Saccharomyces cerevisiae [2] (setting [7]), 0.402 ± 0.032. For the same sequence, the protein stability index in the series with Saccharomyces cerevisiae [2] (setting [8]) was determined as 0.432 ± 0.022; in the series with Saccharomyces cerevisiae [2] (setting [9]), 0.577 ± 0.012.
As to FLLFSFFFFFFF, the protein stability index was determined as 0.482 ± 0.011 with Saccharomyces cerevisiae [1]; 0.44531 ± 9.3e-05 with Saccharomyces cerevisiae [2] (setting [3]); 0.4388 ± 0.0028 in the series with Saccharomyces cerevisiae [2] (setting [4]); 0.409 ± 0.041 in the series on Saccharomyces cerevisiae [2] (setting [5]); 0.52 ± 0.013 in the series with Saccharomyces cerevisiae [2] (setting [6]); 0.489 ± 0.037 in the series on Saccharomyces cerevisiae [2] (setting [7]). For the same sequence, the protein stability index in the series with Saccharomyces cerevisiae [2] (setting [8]) is 0.384 ± 0.021; with Saccharomyces cerevisiae [2] (setting [9]) it was 0.488 ± 0.008.
For the sequence FLLPILSSSPVL, the protein stability index with Saccharomyces cerevisiae [1] came out at 0.727 ± 0.035; in the series with Saccharomyces cerevisiae [2] (setting [3]), 0.692 ± 0.063; with Saccharomyces cerevisiae [2] (setting [4]) it was 0.742 ± 0.019; in the series with Saccharomyces cerevisiae [2] (setting [5]), 0.657 ± 0.011; in the series with Saccharomyces cerevisiae [2] (setting [6]), 0.735 ± 0.012; in the series on Saccharomyces cerevisiae [2] (setting [7]), 0.685 ± 0.019. Besides, the figures for the protein stability index in the series on Saccharomyces cerevisiae [2] (setting [8]) and in the series with Saccharomyces cerevisiae [2] (setting [9]) were 0.667 ± 0.025 and 0.6913 ± 0.0023, respectively.
Take FLRLSFLIFPLH: the protein stability index with Saccharomyces cerevisiae [1] was determined as 0.498 ± 0.02; with Saccharomyces cerevisiae [2] (setting [3]), 0.546 ± 0.029; in the series on Saccharomyces cerevisiae [2] (setting [4]), 0.6295 ± 0.00058; in the series with Saccharomyces cerevisiae [2] (setting [5]), 0.471 ± 0.03; in the series with Saccharomyces cerevisiae [2] (setting [6]), 0.583 ± 0.0021; in the series with Saccharomyces cerevisiae [2] (setting [7]), 0.396 ± 0.026. Moreover, the values for the protein stability index with Saccharomyces cerevisiae [2] (setting [8]) and in the series with Saccharomyces cerevisiae [2] (setting [9]) were 0.409 ± 0.023 and 0.546 ± 0.029, respectively.
Consider FLSCSRRPLRCW, for which the protein stability index is 0.463 ± 0.027 in the series with Saccharomyces cerevisiae [1]; 0.40972 ± 0.00036 in the series on Saccharomyces cerevisiae [2] (setting [3]); 0.445 ± 0.048 in the series with Saccharomyces cerevisiae [2] (setting [4]); 0.303 ± 0.035 with Saccharomyces cerevisiae [2] (setting [5]); 0.4962 ± 0.00098 with Saccharomyces cerevisiae [2] (setting [6]); 0.273 ± 0.0051 in the series on Saccharomyces cerevisiae [2] (setting [7]). Moreover, the protein stability index in the series on Saccharomyces cerevisiae [2] (setting [8]) was determined as 0.301 ± 0.032; in the series on Saccharomyces cerevisiae [2] (setting [9]), 0.469 ± 0.021.
